The values that follow come from patent publication US20150183871A1 (AbbVie / Abbott, published 2015).

In test [1] the target is T1, fc-coupled human RGM A light chain, fragment 0 (47-168) (human).
T1 construct: also called hRGM A light chain - fc; hRGMA 47-168/HuIgGFc
The test is described as follows: direct ELISA on hRGMA 47-168/HuIgGFc. In general terms: An ELISA detects its analyte on a solid surface through an enzyme-linked reagent.

Test [2] has as its target T2, recombinant purified human RGM A (human, UniProt Q96B86 48-424, limits assumed).
T2 construct: Bought recombinant protein (R&D Systems); also called hRGM A; hRGMA
T2 sequence: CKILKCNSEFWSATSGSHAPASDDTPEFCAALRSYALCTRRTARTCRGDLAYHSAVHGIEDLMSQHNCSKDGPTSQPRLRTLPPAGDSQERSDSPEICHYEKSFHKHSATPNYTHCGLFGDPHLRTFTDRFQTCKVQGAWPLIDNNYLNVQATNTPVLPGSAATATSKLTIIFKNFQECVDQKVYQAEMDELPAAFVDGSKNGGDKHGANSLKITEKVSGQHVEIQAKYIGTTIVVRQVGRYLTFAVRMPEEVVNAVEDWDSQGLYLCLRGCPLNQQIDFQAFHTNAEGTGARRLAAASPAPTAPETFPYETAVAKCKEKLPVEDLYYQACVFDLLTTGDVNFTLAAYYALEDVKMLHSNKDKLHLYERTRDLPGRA
The test can be described thus: direct ELISA, plate coated with hRGM A at 2 µg/ml, biotinylated antibody in 1:5 dilution steps, streptavidin-HRP, OD 450 nm. Here is the method:
(i) Direct binding ELISA plates were coated with hRGM A (R&D) at a concentration of 2 μg/ml in Carbonate buffer. The wells were then blocked with 2% Blocking solution (Bio-Rad) for 1 hour at room temperature. Biotinylated antibodies were serially diluted with a 1:5 dilution factor in 0.1% BSNPBS down the plate and incubated for 1 hour at room temperature. The detection reagent was a 1:10,000 dilution of streptavidin-HRP in 0.1% BSNPBS. Detection was done with a TMB reagent, which was stopped with 2N H₂SO₄ and OD was read at 450 nm.
(§1) FAGS was carried out as described in section (ii).

For test [3], the target named is T3, rat RGM A overexpressed on cells (BAF3 cells) (rat).
T3 construct: also called BAF3 cells overexpressing ratRGM A
T3 chain: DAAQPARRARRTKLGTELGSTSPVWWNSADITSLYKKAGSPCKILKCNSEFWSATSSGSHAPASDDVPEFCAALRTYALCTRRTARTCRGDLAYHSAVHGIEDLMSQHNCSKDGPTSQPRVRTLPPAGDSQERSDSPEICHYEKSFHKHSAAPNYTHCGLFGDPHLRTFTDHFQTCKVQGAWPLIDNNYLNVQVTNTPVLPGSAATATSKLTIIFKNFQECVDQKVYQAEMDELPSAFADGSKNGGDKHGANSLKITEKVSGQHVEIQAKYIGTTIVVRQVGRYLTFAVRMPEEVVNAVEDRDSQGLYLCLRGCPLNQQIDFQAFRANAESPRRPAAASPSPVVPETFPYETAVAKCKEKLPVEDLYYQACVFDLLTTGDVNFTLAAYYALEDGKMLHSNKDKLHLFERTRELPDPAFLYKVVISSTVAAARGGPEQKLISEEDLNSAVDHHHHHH
The test is described as follows: FACS on BAF3-ratRGMA stable cell line, anti-rat IgG PE. Here is the method: (ii) FACS analysis. Stable transfectants of HEK293 cells overexpressing hRGM A or BAF3 cells overexpressing ratRGM A were subjected to staining with unlabelled 5F9 or 8D1 MABs for more than 15 minutes at 4° in 0.1% BSNPBS buffer. Detection was carried out with a mouse anti-rat IgG PE antibody.
as §1

Test [4] has as its target T4, fc-coupled full length human RGM A (47-422) (human).
T4 construct: the legends call the protein fc-coupled full length hRGM A fragment (47-422, counted on hRGM A); also called full length fc-conjugated hRGM A; Human RGM A-fc
The test can be described thus: competition ELISA: fc-conjugated full length hRGM A (0.5 µg/ml) binding to coated BMP-2. Here is the method:
After the incubation, unbound BMP-2 was removed in 3 separate wash steps with PBS containing 0.02% Tween 20. Blocking of the BMP-2 coated plates was done by adding 2001-JI per well of a 3% Bovine serum albumin (BSA), PBS, Tween 20(0.02%) blocking solution. After incubation for 1 h at 37° C., the blocking solution was removed and RGM A fragments or full length protein, conjugated with a human fc tag, with or without antibody, was added. In some experiments antibodies were preincubated with the fc-conjugated hRGM A proteins for 1 h at room temperature. The BMP-2 coated plates were incubated with hRGM A with or without antibodies for 1 hat 37° C. After 3 wash steps with PBS-Tween 20 (0.02%), plates were incubated with a Biotin-labeled anti-human fc antibody (1 mg/ml, diluted 1:200 in PBS containing 0.6% BSA, 0.02% Tween 20), Jackson ImmunoResearch catalog no: 709-065-149, for 1 h at 37° C. Unbound antibody was removed by 3 wash steps with PBS-Tween 20 (0.02%). […] Unbound Peroxidase-complex was removed in 3 subsequent wash steps (PBS-Tween 20 (0.02%) before adding the Peroxidase substrate (Immuno Pure TMB, Pierce#34021). The substrate reaction was stopped 1-30 min after its addition to the wells by 2.5 M H2SO4. Plates were analysed (OD determination) at a wave length of 450 nm using an Anthos photometer. […]

The next test concerns the target T5, recombinant rat RGM A (rat).
T5 construct: also called rRatRGMA
T5 chain: T3 chain
The test can be described thus: direct ELISA on rRatRGMA.

Test [5] deals with T2, recombinant purified human RGM A. The test is described as follows: SPR (Biacore 3000), antibody captured by anti-human IgG Fc, hRGMA in solution, 25 °C. Here is the method:
The BIACORE assay (Biacore, Inc, Piscataway, N.J.) determines the affinity of antibodies with kinetic measurements of on-, off-rate constants. Binding of antibodies to recombinant purified human RGMA was determined by surface plasmon resonance-based measurements with a Biacore® 3000 instrument (Biacore® AB, Uppsala, Sweden) using running HBS-EP (10 mM HEPES [pH 7.4], 150 mM NaCl, 3 mM EDTA, and 0.005% surfactant P20) at 25° C. All chemicals were obtained from Biacore® AB (Uppsala, Sweden). Approximately 5000 RU of goat anti-human IgG, (Fey), fragment specific polyclonal antibody (Pierce Biotechnology Inc, Rockford, Ill.) diluted in 10 mM sodium acetate (pH 4.5) was directly immobilized across a CM5 research grade biosensor chip using a standard amine coupling kit according to manufacturers instructions and procedures at 25 μg/ml. Unreacted moieties on the biosensor surface were blocked with ethanolamine. Modified carboxymethyl dextran surface in flowcell 2 and 4 was used as a reaction surface. Unmodified carboxymethyl dextran without goat anti-human IgG in flow cell 1 and 3 was used as the reference surface. Purified antibodies were diluted in HEPES-buffered saline for capture across goat anti-humanIgG specific reaction surfaces. Human antibodies to be captured as a ligand (25 μg/ml) were injected over reaction matrices at a flow rate of 5 μl/min. The association and dissociation rate constants, kₒₙ (unit M⁻¹s⁻¹) and koff (unit s⁻¹) were determined under a continuous flow rate of 25 μl/min. Rate constants were derived by making kinetic binding measurements at […] different antigen concentrations ranging from 0.39-50 nM. For kinetic analysis, rate equations derived from the 1:1 Langmuir binding model were fitted simultaneously to association and dissociation phases of all eight injections (using global fit analysis) with the use of Biaevaluation 4.0.1 software. The equilibrium dissociation constant (unit M) of the reaction between humanized antibodies and recombinant purified human RGMA was then calculated from the kinetic rate constants by the following formula: KD=koff/kₒₙ.
In general terms: SPR reads the build-up and loss of mass on a sensor chip optically.

For test [6] the target is unchanged. The test can be described thus: competition ELISA on coated hRGMA; competitor biotinylated chimeric 5F9. The method, then:
ELISA plates (Costar 3369) were coated overnight at 4° c. with 50 μl/well of 0.25 μg/ml hRGMA in 0.2 M sodium carbonate-bicarbonate buffer, pH 9.4, washed with Wash Buffer (PBS containing 0.1% Tween 20), and blocked for 1 hr at room temperature with 200 μl/well of 2% nonfat dry milk in PBS. After washing with Wash Buffer, a mixture of a biotinylated chimeric 5F9 (0.1 IJg/ml final concentration) and unlabelled competitor test antibody starting at 50 IJg/ml final concentration and serially diluted 5-fold) in 50 μl/well of ELISA buffer was added in duplicate. After incubating the plates for 1 hr at room temperature, and washing with Wash Buffer, bound antibodies were detected using 100 μl/well of 1:10,000 dilution of HRP-conjugated streptavidin (Fitzgerald) in ELISA buffer. After incubating for 1 hr at room temperature, and washing with Wash Buffer, color development was performed by adding 100 μl/well of TMB Buffer (Zymed). After incubating for 15 min at room temperature, color development was stopped by adding 50 μl/well of 1 N hydrochloric acid. Absorbance was read at 490 nm.

Changes are numbered by the printed parent chain.

T4 sequence (chain, as listed by the source): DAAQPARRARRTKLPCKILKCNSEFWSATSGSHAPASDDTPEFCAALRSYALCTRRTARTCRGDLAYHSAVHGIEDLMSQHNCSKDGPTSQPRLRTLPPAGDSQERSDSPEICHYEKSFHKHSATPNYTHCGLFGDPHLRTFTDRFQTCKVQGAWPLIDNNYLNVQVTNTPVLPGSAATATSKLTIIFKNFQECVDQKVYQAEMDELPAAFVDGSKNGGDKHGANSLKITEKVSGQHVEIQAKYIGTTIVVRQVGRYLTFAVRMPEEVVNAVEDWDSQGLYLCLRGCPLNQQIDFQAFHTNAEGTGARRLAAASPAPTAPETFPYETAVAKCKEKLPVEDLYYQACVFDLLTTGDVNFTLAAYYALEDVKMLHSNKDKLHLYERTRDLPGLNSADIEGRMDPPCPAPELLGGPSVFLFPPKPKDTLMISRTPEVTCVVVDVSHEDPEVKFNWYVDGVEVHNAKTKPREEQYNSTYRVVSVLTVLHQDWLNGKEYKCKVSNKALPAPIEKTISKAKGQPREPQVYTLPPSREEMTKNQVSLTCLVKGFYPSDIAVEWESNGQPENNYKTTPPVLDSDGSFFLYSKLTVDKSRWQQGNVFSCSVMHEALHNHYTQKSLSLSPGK
T1 sequence (chain, as listed by the source): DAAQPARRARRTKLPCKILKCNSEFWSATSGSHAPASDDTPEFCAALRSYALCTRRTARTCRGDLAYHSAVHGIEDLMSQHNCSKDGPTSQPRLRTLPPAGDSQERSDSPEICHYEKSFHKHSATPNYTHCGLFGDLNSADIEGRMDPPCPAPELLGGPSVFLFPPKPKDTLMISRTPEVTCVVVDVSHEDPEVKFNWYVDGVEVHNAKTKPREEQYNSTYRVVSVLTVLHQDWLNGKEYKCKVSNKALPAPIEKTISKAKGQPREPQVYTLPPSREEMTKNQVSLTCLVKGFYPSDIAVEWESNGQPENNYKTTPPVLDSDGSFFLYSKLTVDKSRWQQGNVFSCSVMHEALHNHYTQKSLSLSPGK

B1: rat anti-human RGM A monoclonal antibody 8D1 (antibody, V domains shown)
VH: EVQLQQSGPELVKPGTSVKMSCKTSGYTFTSYVMHWVKQKPGQGLEWIGYIIPYNDNTKYNEKFKGKATLTSDKSSSTAYMELSSLTSEDSAVYYCARRNEYYGSSFFDYWGQGTTLTVSS
VL: DIQMTQSPASLSASLEEIVTITCQASQDIDNYLAWYHQKPGKSPRLLIYGATNLADGVPSRFSGSRSGTQFSLKINRLQIEDLGIYYCLQGYIPPRTFGGGTKLELKR
notes: Rat hybridoma antibody; also called ML68-8D1; MAB 8D1
Take B1: the binding result was “binds” in test [1], “no binding” in test [3], “binds” in test [4] and “no binding” with recombinant rat RGM A. For the same molecule, the EC50 (read off the curve) (usually the concentration giving half of the maximal effect) in test [2] was about 0.2 µg/mL.

B2: rat anti-human RGM A monoclonal antibody 5F9 (antibody, V domains shown)
VH: EVQLVESGGGLVQPGSSLKLSCVASGFTFSNYGMNWIRQAPKKGLEWIGMIYYDSSEKHYADSVKGRFTISRDNSKNTLYLEMNSLRSEDTAIYYCAKGTTPDYWGQGVMVTVSS
VL: DVVLTQTPVSLSVTLGDQASMSCRSSQSLEYSDGYTFLEWFLQKPGQSPQLLIYEVSNRFSGVPDRFIGSGSGTDFTLKISRVEPEDLGVYYCFQATHDPLTFGSGTKLEIKR
notes: Rat hybridoma antibody; also called ML69-5F9; MAB 5F9
Turning to B2, the “EC50 (read off the curve)” value in test [2] is about 0.08 µg/mL.

B3: chimeric 5F9 (antibody, V domains shown)
VH: B2 VH
VL: B2 VL
notes: also called chimeric human-rat 5F9; biotinylated chimeric 5F9
As to B3, in test [5], the Kd – broadly, the free concentration of one partner at which half of the binding sites on the other are occupied at equilibrium, for simple one-to-one binding – was found to be 3.09 nM; the koff (as a rule, the rate constant with which the complex falls apart) was 0.00236 s⁻¹; the kon (usually a measure of how fast the partners come together) came to 765000 M⁻¹ s⁻¹.

B4: humanized antibody h5F9.25 (antibody, V domains shown)
VH: B2 VH with S16G, K19R, V23A, K42G, E82Q, S88A, I93V, V109T
VL: B2 VL with T7S, V9L, S12P, D17Q, Q18P, M21I, I68S, P85A, L88V, S105Q
In the case of B4, in test [5], the Kd turned out to be 5.78 nM, the koff turned out to be 0.00329 s⁻¹ and the kon was found to be 570000 M⁻¹ s⁻¹. Further, the IC50 (commonly the concentration at which inhibition is half-maximal) in test [6] was 0.66 µg/mL.

B5: humanized antibody h5F9.24 (antibody, V domains shown)
VH: B2 VH with S16G, K19R, V23A, K42G, E82Q, S88A, I93V, V109T
VL: DVVLTQSPLSLPVTLGQPASISCRSSQSLEYSDGYTFLEWFQQRPGQSPRRLIYEVSNRFSGVPDRFSGSGSGTDFTLKISRVEAEDVGVYYCFQATHDPLTFGQGTKLEIKR
In the case of B5, the IC50 in test [6] was 1.32 µg/mL.

B6: humanized antibody h5F9.21 (antibody, V domains shown)
VH: B2 VH with L11V, S16R, K19R, V23A, K42G, E82Q, S88A, I93V, V109T
VL: B5 VL with Q42L, R44K, R50Q, R51L
B6: in test [5], the Kd worked out at 7.59 nM, the koff amounted to 0.00269 s⁻¹ and the kon is 355000 M⁻¹ s⁻¹. Further, the IC50 in test [6] stood at 0.6 µg/mL.

B7: humanized antibody h5F9.23 (antibody, V domains shown)
VH: B2 VH with S16G, K19R, V23A, K42G, E82Q, S88A, I93V, V109T
VL: B5 VL with R51L
Consider B7, for which, in test [5], the Kd stood at 4.37 nM, the koff was found to be 0.00221 s⁻¹ and the kon amounted to 507000 M⁻¹ s⁻¹. Further, in test [6], the IC50 stood at 0.55 µg/mL.
